Broadly, the Ki is the equilibrium dissociation constant of an inhibitor or competing ligand from its target. Read a low Ki as tighter binding.

For the test, the target named is human α-thrombin (human) (UniProt P00734). The test can be described thus: enzyme inhibition assay (chromogenic thrombin amidolytic activity); 0.14 nM human α-thrombin, 100 μM N-(p-Tosyl)-GPR-pNA, varying concentrations of inhibitor; 50 mM Tris-HCl, 50 mM NaCl, pH 8; absorption at 405 nm; Ki from a Morrison equation.
“chimadanin sulfated at both Tyr28 and Tyr31 (natural protein)”: the Ki is 0.1 nM.

In turn, “madanin-1 with sTyr at Tyr32 (natural protein)” showed a Ki of 1.3 nM.

For the substance “madanin-1 with sTyr at Tyr35 (natural protein)”, the Ki came out at 6.1 nM.

“madanin-1 sulfated at both Tyr32 and Tyr35 (natural protein)” displayed a Ki of 0.5 nM.

In the case of “chimadanin with sTyr at Tyr31 (natural protein)”, the Ki was found to be 1.5 nM.

wildtype chimadanin (natural protein) returned a Ki of 12.9 nM.

Regarding wildtype madanin-1 (natural protein), the Ki came out at 16 nM.

Substance “chimadanin with sTyr at Tyr28 (natural protein)” gave a Ki of 0.6 nM.
